The results in this text go back to the supplement of paper PMC12764529.

± gives the half width of the 95% confidence interval.

Data set [1] in a line: folding stability dG unfold from chymotrypsin proteolysis; higher = more stable. A digest of the protocol: (§1)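 Unfolding free energy was derived, per protease or combined, against a sequence-predicted unfolded-state K50 and a shared folded-state K50, starting from K50 inferred by Bayesian fitting of sequencing counts. Digestion with trypsin and chymotrypsin was carried out on designed mini-proteins under 80 residues without cysteine in a PA-tagged cDNA display construct. Only designs with AlphaFold2 dimer inter-PAE above 15 were kept.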

A short description of data set [2]: folding stability dG unfold (combined trypsin and chymotrypsin); higher = more stable. The essentials: as §1
The nature of data set [3]: folding stability dG unfold from trypsin proteolysis; higher = more stable. The essentials:
as §1

Turning to “SAGMTALFTDSSGKEVTFSHPNLELTVDPETGVVSAYEPESNLKVEVKVAPDKVTVTVYSGSSSKEIPLSAG [r5_786_JUSTAS]”, the “folding stability dG unfold” value in data set [1] was 0.956 ± 0.16 kcal/mol; in data set [2], 0.574 ± 0.11 kcal/mol; in data set [3], -0.226 ± 0.064 kcal/mol.
Consider “SAGMTFKNPGSDKTLTYEPETGAITLHNGDSVSTLPLPPGTSFTVTVDPEKGVVTITVPETGATITLPLSAG [r5_858_JUSTAS]”, for which the “folding stability dG unfold” value in data set [1] was 0.248 ± 0.22 kcal/mol; in data set [2], 0.803 ± 0.11 kcal/mol; in data set [3], 1.07 ± 0.028 kcal/mol.
In the same order, the values of “SAGMTIEELRSLPPGARVTSVEYDEETEEVTVTVERTREDGKTETLTLTFRSREELEAALKAGADRIVFSAG [r5_905_TrROS_Hall]” are 1.16 ± 0.059 kcal/mol, 1.54 ± 0.052 kcal/mol and 1.731 ± 0.017 kcal/mol.
In the same order, the values of “SAGMTIELPNATVTLERVPVPATGESAWVVTVTARHPDGSTPTVVAVFPEDTPPEDVLAAALALAEELESAG [r5_704_TrMRF]” are 4.62 ± 0.075 kcal/mol, 4.78 ± 0.16 kcal/mol and 4.75 ± 0.44 kcal/mol.
With “SAGMTIKIKNKKTNKVITIERRPDGTTVKVKVYDKNGKLVKTYPEGMTLEELLKKFPNAKVEVVEVEKPSAG [r5_314_TrROS_Hall]”, the “folding stability dG unfold” value in data set [1] is 0.559 ± 0.11 kcal/mol; in data set [2], 1.14 ± 0.07 kcal/mol; in data set [3], 1.47 ± 0.033 kcal/mol.
For the sequence “SAGMTLIIRVKVYNKDGELVEEREIEVPNMSVEEIAEALKKLPNVEKVKIEVFNADGEKKEIEIEVKPSAGG [r19_269_TrROS_Hall]”, the “folding stability dG unfold” value came to 4.43 ± 0.064 kcal/mol in data set [1], 4.1 ± 0.09 kcal/mol in data set [2] and 3.08 ± 0.13 kcal/mol in data set [3].
As to “SAGMTTLTLSAKAPPGEAVVTLTVTLPDGTTVPLATRTVAPDEVANITVSFPSGEPIDPARLTVEVTPPSAG [r5_287_JUSTAS]”, the “folding stability dG unfold” value in data set [1] stood at 0.137 ± 0.15 kcal/mol; in data set [2], 0.157 ± 0.13 kcal/mol; in data set [3] it was 0.0521 ± 0.14 kcal/mol.
In the same order, the values of “SAGMTTTLTKGEDGVTLTFDLPGQSVTLTVPVPPDVEVTTSFPATGTTITGTPVGDTLTITVTVPAPASAGG [r19_384_JUSTAS]” are 1.52 ± 0.041 kcal/mol, 1.69 ± 0.038 kcal/mol and 1.78 ± 0.028 kcal/mol.
In the same order, the values of “SAGMTVEELKAQPKNATVTSVSRDPSTGLYTVTIERPDSNGKWVTHTLTLTGPEAVAAAVAAGLPSLAASAG [r5_905_JUSTAS]” are 2.46 ± 0.043 kcal/mol, 2.16 ± 0.087 kcal/mol and 1.31 ± 0.026 kcal/mol.
In the same order, the values of “SAGMTVKVKVEVKTKYFDKNGKLVKEEKKTVEVEVEVKIVIELKPEDLEKAKELAEKLGIEITEEELKSAGG [r19_315_TrROS_Hall]” are 1.86 ± 0.17 kcal/mol, 1.74 ± 0.56 kcal/mol and 1.26 ± 0.29 kcal/mol.
Regarding “SAGMVEIVHDPAGYYTVNVTLTKEGKPTSRTIRVPPELSPEEVKALVEELAKEEGVDDVEVTVIPLPESAGG [r19_31_JUSTAS]”, the “folding stability dG unfold” value was determined as 1.51 ± 0.12 kcal/mol in data set [1], 1.41 ± 0.12 kcal/mol in data set [2] and 1.1 ± 0.035 kcal/mol in data set [3].
In the same order, the values of “SAGMVEVYEEDKRLLVRVTLESPDPSTITEETVRELLERLGLPVEELEISPTALPNGSYTVTAEVVVLPSAG [r5_922_JUSTAS]” are 1.61 ± 0.025 kcal/mol, 1.59 ± 0.17 kcal/mol and 1.39 ± 0.056 kcal/mol.
With “SAGMVIKVEVIYNGKKYTIEISEEQLKELLEKLKPGDEVEIEINGEKVLVRVEVVEPPEPSEEELKALKSAG [r5_669_TrROS_Hall]”, the “folding stability dG unfold” value in data set [1] stood at 2.1 ± 0.2 kcal/mol; in data set [2] it was 1.69 ± 0.24 kcal/mol; in data set [3] it was 0.944 ± 0.087 kcal/mol.
In the same order, the values of “SAGMVIPREEALANYSEEEIKELAKKIAEELGYKPKKIEIKKDPSPNSSITVTITPPDGSTIPLVLELPSAG [r5_745_JUSTAS]” are 1.08 ± 0.037 kcal/mol, 1.06 ± 0.047 kcal/mol and 0.959 ± 0.041 kcal/mol.
In the same order, the values of “SAGMVIRDPGDGKYIYISPGSGEIEIFNDGKEKKIPFPPGEEMEIEIDPDDGTITITFPNNGRELEIPLSAG [r5_858_TrROS]” are 0.846 ± 0.11 kcal/mol, 0.699 ± 0.16 kcal/mol and 0.598 ± 0.049 kcal/mol.
For the sequence “SAGMVITISSDLSPEEVLATAQALAAELGAKKVEVERDPANPDVVTVTVEFPGLGKTVTVNVLPPELLESAG [r5_912_JUSTAS]”, the “folding stability dG unfold” value is 1.78 ± 0.065 kcal/mol in data set [1], 1.57 ± 0.15 kcal/mol in data set [2] and 1.28 ± 0.059 kcal/mol in data set [3].
As for “SAGMVKTVTLSREEVEKLVRELGRSPEEMTLEEFAERLEELFPGATVTVTVDTKTGTYTITITFPPSLASAG [r5_264_JUSTAS]”, the figures for the “folding stability dG unfold” value in data set [1], in data set [2] and in data set [3] were 4.16 ± 0.085 kcal/mol, 3.93 ± 0.23 kcal/mol and 3.61 ± 0.25 kcal/mol, respectively.
Turning to “SAGMVKVEVEYRPLPNGTVEVTVKLTITEPVPDEDGNLYYKTKTLTITVPTTSLSEAPKHVEEFIKKLSAGG [r19_218_TrMRF]”, the “folding stability dG unfold” value in data set [1] is 4.03 ± 0.18 kcal/mol; in data set [2] it was 3.37 ± 0.19 kcal/mol; in data set [3] it was 2.52 ± 0.12 kcal/mol.
